± gives the uncertainty stated by the source.
Assay: protein stability index of a GFP-peptide fusion (yeast GPS) (PSI 1-4); higher = more stable; sorted into four equal gates, so the index is relative within each strain
Conditions: doa10∆
In short: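 For each peptide, the protein stability index sums the read frequency in every gate after multiplying it by the gate number. Read frequencies came from plasmids that were PCR-amplified from each gate and Illumina-sequenced, with reads assigned to strains by barcodes. The gates were four equal bins of GFP/Cherry fluorescence ratio applied to mid-log yeast in leucine-free medium carrying a pooled library of tiled 17-residue yeast protein peptides fused downstream of GFP on a Cherry-expressing plasmid.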

Row | Sequence | protein stability index
1 | DPPKGILLYGPPGTGKT [RPT1] | 2.94 ± 0.28
2 | DPSLNLKLLAKSHVLLA [BRR2] | 2.02 ± 0.085

Same assay, conditions: pdr5∆

Row | Sequence | protein stability index
3 | DDDEIVMPVPNVRSSVL [SKP1] | 2.25 ± 0.058
4 | DDENEPKRKRRLPVSED [YOR098C/NUP1] | 3.28 ± 0.14
5 | DDFTNELKAELDRYKRE [SEM1] | 3.36 ± 0.14
6 | DDIFIPQNMLFEGCYYT [RPC25] | 2.89 ± 0.23
7 | DDIFIRYLTLLSNEFTA [ECM29] | 1.91 ± 0.051
8 | DDLPYYVNALADVLYKT [QCR2] | 2.86 ± 0.052
9 | DDPSKVRLLCRSDGMGN [YLR335W/NUP2] | 3.66 ± 0.19
10 | DDQLKQRRQNIRDLEKL [RPT4] | 3.11 ± 0.29
11 | DDSLNRLAQNDGLLKNV [RPS21A] | 3.04 ± 0.12
12 | DDYEDQDDDDYVDTATA [IRR1] | 3.47 ± 0.071
13 | DDYILSGESVMDRDSES [SRB4] | 3.6 ± 0.12
14 | DEEASYKLGKVKKVQLG [RPS4A] | 3.1 ± 0.069
15 | DEEELGQRTAYHSKRDA [RPB2] | 2.9 ± 0.14
16 | DEEESNDEKQKAQDVDV [RPN13] | 3.42 ± 0.077
17 | DEEIIQLHFSLLDEEAE [RPO21] | 3.01 ± 0.09
18 | DEFPSELSDSDRQIINE [SIR4] | 3.24 ± 0.16
19 | DEGKEIPATIFDKVIYH [TAF14] | 3.14 ± 0.059
20 | DEIHIPAPSKPVIDYEL [BRR2] | 3.08 ± 0.077
21 | DEKDYLTNQQPKNLSTP [CSE2] | 2.87 ± 0.081
22 | DELDQEILNLSTQELQT [RPT5] | 3.15 ± 0.09
23 | DELRKQELISKAFTNWN [ISW2] | 2.45 ± 0.078
24 | DENDSKKNNAASELANP [YAR002W/NUP60] | 2.99 ± 0.052
25 | DENKDDELVKLLLDNGF [SRP68] | 3.4 ± 0.086
26 | DEPMTTFYKCVNCGHRW [RPC11] | 2.5 ± 0.082
27 | DEQQREDNNDAVNSIMA [ECM29] | 3.56 ± 0.11
28 | DESLKDEATVPNTRDAE [SWI3] | 3.31 ± 0.082

Row | Sequence | protein stability index
29 | DESNDIDMIADENGTNS [RPC37] | 2.43 ± 0.07
30 | DEVTIRRTVGLKKDDYQ [SMC3] | 2.53 ± 0.099
31 | DFDGDEMNLHVPQTEEA [RPO31] | 3.31 ± 0.068
32 | DFDLFKEVLPDLQNLNL [YJL039C/NUP192] | 3.17 ± 0.11
33 | DFIQNVGRLWDQTFPIN [ECM29] | 3.35 ± 0.057
34 | DFKPPYIYSHVNKVPQN [SWP82] | 2.14 ± 0.11
35 | DFLRKATAFNKTRGPFH [RPL16A] | 2.96 ± 0.2
36 | DFVRKGGLQKGKLVVSQ [SIR3] | 3.22 ± 0.091
37 | DGAYALSASWDKTLRLW [ASC1] | 3.28 ± 0.057
38 | DGDASKPAFSFGAKSDE [YJL041W/NSP1] | 3.26 ± 0.053
39 | DGFDPRGNIKVMFATNR [RPT1] | 3.48 ± 0.16
40 | DGFNKTFHDELNLKFKE [YML103C/NUP188] | 2.38 ± 0.072
41 | DGKGAVYSFDPVGSYER [PRE7] | 2.57 ± 0.12
42 | DGLLEYLEDIIGTANYK [SMC4] | 2.53 ± 0.055
43 | DGRVNRFYELEESLTVL [YJR042W/NUP85] | 2.21 ± 0.13
44 | DGSAIEDDDIRSRMLPT [SNF5] | 3.03 ± 0.11
45 | DHEFVLISLIMTTWRKL [YMR129W/POM152] | 1.09 ± 0.075
46 | DHIAIDWEDEEKYEDED [DSN1] | 2.86 ± 0.12
47 | DHINWEHIKQDYVASLN [NSL1] | 3.23 ± 0.069
48 | DHLVSSIPMGGQSINDS [ARP9] | 2.89 ± 0.093
49 | DHTVDEIDHVEYYVMMD [SRB8] | 2.63 ± 0.062
50 | DHVDGSSEFVSQDTKVI [RRP46] | 2.24 ± 0.053
51 | DHYESNQLVAKLLLLRI [SRB8] | 2.74 ± 0.085
52 | DIDGIMDNPRKLSKILR [SNU114] | 2.96 ± 0.084
53 | DIFITPTPVVTISEKEQ [SSN2] | 1.95 ± 0.077
54 | DIIWLQRDLGLYVVGLF [RRP6] | 2.22 ± 0.099

Row | Sequence | protein stability index
55 | DIKAPSTFENRNVGKTL [RPS1A] | 2.72 ± 0.06
56 | DIKVLKRQLIKERNQKF [YIL149C/MLP2] | 2.62 ± 0.084
57 | DILAKLFSLEKPNLNYF [SWI1] | 1.96 ± 0.05
58 | DILSKLYLLLARVFEIW [SNF11] | 2.36 ± 0.053
59 | DIPTIADEHFWADNYER [BRN1] | 3.18 ± 0.1
60 | DIRKFLDGIYVSHKGFI [RPL9A] | 2.08 ± 0.077
61 | DKKASMIISGSRDKTIK [ASC1] | 2.54 ± 0.092
62 | DKLLDPTTVSYIFCISR [SCL1] | 3.1 ± 0.06
63 | DKLSVSEISDGKLKRCS [SIN4] | 3.38 ± 0.13
64 | DKSLDSSNASFNNQGKL [MED1] | 3.07 ± 0.043
65 | DKYHEQWIKFLLHTLYL [SSN8] | 2.2 ± 0.076
66 | DLDETTQTFNGSIFTHE [YML031W/NDC1] | 2.85 ± 0.037
67 | DLETLTMHTKTYAAEIA [RPL32] | 2.74 ± 0.054
68 | DLGIKYDPSIGIFGMDF [RPL11A] | 3.06 ± 0.041
69 | DLIHKSEAFPSLQSCSV [SMC4] | 2.32 ± 0.061
70 | DLISEILKWVQWSRIVL [MED1] | 3.33 ± 0.11
71 | DLKASQRVCLRSDSYML [RPT6] | 3.08 ± 0.077
72 | DLKFEPQGRQSTTFADC [RPC40] | 3.3 ± 0.29
73 | DLKKFTSTITKYKQLLL [RPN3] | 3 ± 0.055
74 | DLKKKLNSLKDERSQGE [SMC4] | 3.16 ± 0.25
75 | DLKLLFNTEAEQTVSAV [RGR1] | 2.93 ± 0.085
76 | DLLKFENISLAEFILKN [BRR2] | 3.3 ± 0.09
77 | DLLVIDSHKRIPDMSKN [SNU114] | 3.09 ± 0.073
78 | DLNNAVQKRDEVKEQLG [SMC4] | 2.99 ± 0.056
79 | DLNTRISVIETIRVVTE [RPN5] | 2.04 ± 0.12
80 | DLPDTEGLELLGWIHTQ [PRP8] | 2.79 ± 0.085

Row | Sequence | protein stability index
81 | DLPISSTDNEAITISNS [SMC1] | 2.89 ± 0.093
82 | DLQYLGEFSGKNFSPTK [RRP6] | 3.25 ± 0.083
83 | DLRLIKVPQQAAGKRIS [SMC1] | 1.31 ± 0.2
84 | DLSADKPTSPFIDSICK [SRB8] | 1.88 ± 0.039
85 | DLSLNIHPIPSVTVSQG [YMR129W/POM152] | 2.43 ± 0.057
86 | DLSYNFNVHEVPRAALE [YMR129W/POM152] | 3.04 ± 0.069
87 | DLTFKLADILKANISLE [RPO21] | 2.68 ± 0.087
88 | DLTQLLEKERSILDDIK [SMC4] | 2.98 ± 0.08
89 | DMAILERYYELAFDKLN [ARP7] | 1.6 ± 0.1
90 | DMAKLKKMMNTSDSEST [SWI3] | 2.27 ± 0.05
91 | DMDAESNESQNGKDSEI [SMC3] | 3.22 ± 0.096
92 | DMKEYDSDKGSKLNELK [SMC2] | 3.28 ± 0.1
93 | DMLEHINLAMNESSLAL [SRB4] | 1.28 ± 0.11
94 | DMPSLRLIDLSGCENIT [GRR1] | 2.7 ± 0.097
95 | DNATLTELVDKANIFQV [SSN2] | 3.56 ± 0.12
96 | DNDGFSFLMRQFTRFFL [ECM29] | 2.19 ± 0.059
97 | DNDIMNLGSRTKNNTQA [SSN3] | 2.92 ± 0.038
98 | DNIGEIDESLFNLLILS [YCG1] | 3.02 ± 0.11
99 | DNVIVINHKINNKITQL [SIR3] | 2.13 ± 0.05
100 | DNVSKNALDKLRNNLNS [YCG1] | 3.19 ± 0.13
101 | DPALLRPGRIDRKIEFP [RPT6] | 3.32 ± 0.077
102 | DPETTATQKESLEMVPK [RGR1] | 3.07 ± 0.054
103 | DPGRYNKVCRIEAASTT [RPB8] | 2.53 ± 0.099
104 | DPKFRRNHKHALHGTAK [RPL29] | 2.602 ± 0.022
105 | DPKFVNSLLAKLKDSKK [YML103C/NUP188] | 2.86 ± 0.1
106 | DPKTSLRIVKPTVSLTI [RPC82] | 2.3 ± 0.084

Reference: the supplement of paper PMC9732359
